# Molecular target: biotinylated recombinant human CLL-1 extracellular domain protein, isoform with lysine at amino acid position 244 (human) (UniProt Q5QGZ9)
# Test: Exp 1 (= Octet, CLL-1-K244 of FIG. 12B); Exp 2: ND
# Sequence of biotinylated recombinant human CLL-1 extracellular domain protein, isoform with lysine at amino acid position 244 (human) (Q5QGZ9 65-265): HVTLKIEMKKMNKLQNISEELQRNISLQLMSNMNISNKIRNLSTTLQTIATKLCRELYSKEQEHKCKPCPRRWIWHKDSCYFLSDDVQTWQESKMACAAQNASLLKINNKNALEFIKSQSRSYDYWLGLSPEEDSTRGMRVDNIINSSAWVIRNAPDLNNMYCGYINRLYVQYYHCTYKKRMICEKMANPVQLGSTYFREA
substance,measurement,value
+ Control,Kd,0.127 nM

# Reference: patent publication US20250333515A1
